Assay results from PMC10277290.

Each protein was assayed on CO (assay: purified protein). Conditions: NAD+ 0.5 mM, Mg2+ 5 mM, PBS pH 7.4, 37 °C.
Type: biochemical, Geobacillus stearothermophilus

Protein | Km | Vmax | kcat | kcat/Km
MdhBs (NAD+-dependent methanol dehydrogenase) (Geobacillus stearothermophilus) (protein) MKAAVVNEFKKALEIKEVERPKLEEGEVLVKIEACGVCHTDLHAAHGDWPIKPKLPLIPGHEGVGIVVEVAKGVKSIKVGDRVGIPWLYSACGECEYCLTGQETLCPHQLNGGYSVDGGYAEYCKAPADYVAKIPDNLDPVEVAPILCAGVTTYKALKVSGARPGEWVAIYGIGGLGHIALQYAKAMGLNVVAVDISDEKSKLAKDLGADIAINGLKEDPVKAIHDQVGGVHAAISVAVNKKAFEQAYQSVKRGGTLVVVGLPNADLPIPIFDTVLNGVSVKGSIVGTRKDMQEALDFAARGKVRPIVETAELEEINEVFERMEKGKINGRIVLKLKED | 30.03 ± 4.63 mM | 0.0115 µmol/min/mg | 0.007 ± 0.001 s⁻¹ | 0.233 M⁻¹ s⁻¹
MdhBs (NAD+-dependent methanol dehydrogenase) (Geobacillus stearothermophilus; E309K/N214D) (protein) MKAAVVNEFKKALEIKEVERPKLEEGEVLVKIEACGVCHTDLHAAHGDWPIKPKLPLIPGHEGVGIVVEVAKGVKSIKVGDRVGIPWLYSACGECEYCLTGQETLCPHQLNGGYSVDGGYAEYCKAPADYVAKIPDNLDPVEVAPILCAGVTTYKALKVSGARPGEWVAIYGIGGLGHIALQYAKAMGLNVVAVDISDEKSKLAKDLGADIAIDGLKEDPVKAIHDQVGGVHAAISVAVNKKAFEQAYQSVKRGGTLVVVGLPNADLPIPIFDTVLNGVSVKGSIVGTRKDMQEALDFAARGKVRPIVKTAELEEINEVFERMEKGKINGRIVLKLKED | 18.19 ± 3.27 mM | 0.0238 µmol/min/mg | 0.013 ± 0.001 s⁻¹ | 0.715 M⁻¹ s⁻¹
MdhBs (NAD+-dependent methanol dehydrogenase) (Geobacillus stearothermophilus; K72T/T153P) (protein) MKAAVVNEFKKALEIKEVERPKLEEGEVLVKIEACGVCHTDLHAAHGDWPIKPKLPLIPGHEGVGIVVEVATGVKSIKVGDRVGIPWLYSACGECEYCLTGQETLCPHQLNGGYSVDGGYAEYCKAPADYVAKIPDNLDPVEVAPILCAGVTPYKALKVSGARPGEWVAIYGIGGLGHIALQYAKAMGLNVVAVDISDEKSKLAKDLGADIAINGLKEDPVKAIHDQVGGVHAAISVAVNKKAFEQAYQSVKRGGTLVVVGLPNADLPIPIFDTVLNGVSVKGSIVGTRKDMQEALDFAARGKVRPIVETAELEEINEVFERMEKGKINGRIVLKLKED | 9.84 ± 0.67 mM | 0.0288 µmol/min/mg | 0.015 ± 0.001 s⁻¹ | 1.52 M⁻¹ s⁻¹
